Measured values from patent US20090325873A1, “HUMAN GLP-1 MIMETIBODIES, COMPOSITIONS, METHODS AND USES” (CENTOCOR, INC., priority 2006, published 2009).

Target: GLP-1R on Rinm cells
Test: cell-based or functional assay

- cAMP activity in Rinm cells, EC50: 0.4 nM
Substance: GLP-1 peptide (from UniProt P01275 98-127)
